# Measured values as given in patent publication US20230340160A1 (published 2023).
# B1: “1+1 IgG scFab, one armed inverted” (anti-EGFR/anti-huCD3) (bispecific antibody)
# heavy 1: not shown
# heavy 2: EVQLVESGGGLVQPGGSLRLSCAASGYSFTGYTMNWVRQAPGKGLEWVALINPYKGVSTYNQKFKDRFTISVDKSKNTAYLQMNSLRAEDTAVYYCARSGYYGDSDWYFDVWGQGTLVTVSSASTKGPSVFPLAPSSKSTSGGTAALGCLVKDYFPEPVTVSWNSGALTSGVHTFPAVLQSSGLYSLSSVVTVPSSSLGTQTYICNVNHKPSNTKVDKKVEPKSCDKTHTCPPCPAPEAAGGPSVFLFPPKPKDTLMISRTPEVTCVVVDVSHEDPEVKFNWYVDGVEVHNAKTKPREEQYNSTYRVVSVLTVLHQDWLNGKEYKCKVSNKALGAPIEKTISKAKGQPREPQVCTLPPSRDELTKNQVSLSCAVKGFYPSDIAVEWESNGQPENNYKTTPPVLDSDGSFFLVSKLTVDKSRWQQGNVFSCSVMHEALHNHYTQKSLSLSPGK
# light: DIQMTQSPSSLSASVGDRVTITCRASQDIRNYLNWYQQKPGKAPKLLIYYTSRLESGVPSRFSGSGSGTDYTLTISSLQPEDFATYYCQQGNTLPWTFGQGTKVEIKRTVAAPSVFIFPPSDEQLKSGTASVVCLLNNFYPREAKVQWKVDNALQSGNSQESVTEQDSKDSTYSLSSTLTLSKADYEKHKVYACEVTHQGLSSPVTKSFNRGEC
# B2: “1+1 IgG scFab, one armed” (anti-EGFR/anti-huCD3) (bispecific antibody)
# heavy 1: not shown
# heavy 2: QVQLVQSGAEVKKPGSSVKVSCKASGFTFTDYKIHWVRQAPGQGLEWMGYFNPNSGYSTYAQKFQGRVTITADKSTSTAYMELSSLRSEDTAVYYCARLSPGGYYVMDAWGQGTTVTVSSASTKGPSVFPLAPSSKSTSGGTAALGCLVKDYFPEPVTVSWNSGALTSGVHTFPAVLQSSGLYSLSSVVTVPSSSLGTQTYICNVNHKPSNTKVDKKVEPKSCDKTHTCPPCPAPEAAGGPSVFLFPPKPKDTLMISRTPEVTCVVVDVSHEDPEVKFNWYVDGVEVHNAKTKPREEQYNSTYRVVSVLTVLHQDWLNGKEYKCKVSNKALGAPIEKTISKAKGQPREPQVCTLPPSRDELTKNQVSLSCAVKGFYPSDIAVEWESNGQPENNYKTTPPVLDSDGSFFLVSKLTVDKSRWQQGNVFSCSVMHEALHNHYTQKSLSLSPGK
# light: DIQMTQSPSSLSASVGDRVTITCRASQGINNYLNWYQQKPGKAPKRLIYNTNNLQTGVPSRFSGSGSGTEFTLTISSLQPEDFATYYCLQHNSFPTFGQGTKLEIKRTVAAPSVFIFPPSDEQLKSGTASVVCLLNNFYPREAKVQWKVDNALQSGNSQESVTEQDSKDSTYSLSSTLTLSKADYEKHKVYACEVTHQGLSSPVTKSFNRGEC
# B3: “1+1 IgG scFab” (anti-EGFR/anti-huCD3) (bispecific antibody)
# heavy: not shown
# chain: DKTHTCPPCPAPEAAGGPSVFLFPPKPKDTLMISRTPEVTCVVVDVSHEDPEVKFNWYVDGVEVHNAKTKPREEQYNSTYRVVSVLTVLHQDWLNGKEYKCKVSNKALGAPIEKTISKAKGQPREPQVCTLPPSRDELTKNQVSLSCAVKGFYPSDIAVEWESNGQPENNYKTTPPVLDSDGSFFLVSKLTVDKSRWQQGNVFSCSVMHEALHNHYTQKSLSLSPGK
# light: B2 light
# B4: “2+1 IgG scFab, wt” (anti-MCSP/anti-huCD3) (bispecific antibody)
# heavy 1: not shown
# heavy 2: not shown
# light: DIVLTQSPSSLSASLGDRVTISCSASQGIRNYLNWYQQRPDGTVKLLIYYTSSLHSGVPSRFSGSGSGTDYSLTISNLEPEDIATYYCQQYSKLPWTFGGGTKLEIKRTVAAPSVFIFPPSDEQLKSGTASVVCLLNNFYPREAKVQWKVDNALQSGNSQESVTEQDSKDSTYSLSSTLTLSKADYEKHKVYACEVTHQGLSSPVTKSFNRGEC
# notes: LC007 (MCSP, two Fabs) x V9 (CD3, one scFab); wild-type Fc domain with knob/hole; also called Fc-wt
# B5: “2+1 IgG scFab, LALA” (anti-MCSP/anti-huCD3) (bispecific antibody)
# heavy 1: not shown
# heavy 2: EVQLQESGPGLVKPSQSLSLTCSVTGYSITSGYYWNWIRQFPGNKLEWMGYITYDGSNNYNPSLKNRISITRDTSKNQFFLKLNSVTTEDTATYYCADFDYWGQGTTLTVSSASTKGPSVFPLAPSSKSTSGGTAALGCLVKDYFPEPVTVSWNSGALTSGVHTFPAVLQSSGLYSLSSVVTVPSSSLGTQTYICNVNHKPSNTKVDKKVEPKSCDKTHTCPPCPAPEAAGGPSVFLFPPKPKDTLMISRTPEVTCVVVDVSHEDPEVKFNWYVDGVEVHNAKTKPREEQYNSTYRVVSVLTVLHQDWLNGKEYKCKVSNKALPAPIEKTISKAKGQPREPQVCTLPPSRDELTKNQVSLSCAVKGFYPSDIAVEWESNGQPENNYKTTPPVLDSDGSFFLVSKLTVDKSRWQQGNVFSCSVMHEALHNHYTQKSLSLSPGK
# light: B4 light
# notes: also called Fc-LALA
# Tests used:
# [1] = target: T1, Human EGFR (immobilized on CM5 sensor chip) (human, UniProt P00533 25-645, limits assumed); assay: SPR; construct (200 nM) captured on immobilized human EGFR, then CD3 fusion injected (FIG. 18C)
# T1 construct: 8000 RU immobilized by amine coupling; also called Epidermal Growth Factor Receptor
# Description: (§1) Analysis of simultaneous binding of the T-cell bispecific constructs to the tumor antigen and the human CD3ε was performed by direct coupling of 1650 resonance units (RU) of biotinylated D3 domain of MCSP on a sensor chip SA using the standard coupling procedure. Human EGFR was immobilized using standard amino coupling procedure. 8000 RU were immobilized on a CM5 sensor chip at pH 5.5.
# (§2) Different T-cell bispecific constructs were captured for 60 s at 200 nM. Human CD3γ(G₄S)₅CD3ε-AcTev-Fc(knob)-Avi/Fc(hole) was subsequently passed at a concentration of 2000 nM and a flow rate of 40 µl/min for 60 s. Bulk refractive index differences were corrected for by subtracting the response obtained on a reference flow cell where the recombinant CD3ε was flown over a surface with immobilized D3 domain of MCSP or EGFR without captured T-cell bispecific constructs.
# [2] = target: T1, Human EGFR (immobilized on CM5 sensor …); assay: SPR; construct (200 nM) captured on immobilized human EGFR, then CD3 fusion injected (FIG. 18B)
# Description: as §1, §2
# [3] = target: T1, Human EGFR (immobilized on CM5 sensor …); assay: SPR; construct (200 nM) captured on immobilized human EGFR, then CD3 fusion injected (FIG. 18D)
# Description: as §1, §2
# murine FcγRIV [4] = target: T2, murine FcγRIV (murine); assay: SPR (Biacore T100, 25 °C); receptor captured on anti-Penta His, construct as analyte; kinetic
# T2 construct: Captured on anti-Penta His antibody in SPR; also called muFcγRIV-aviHis-biotin
# Description: (§3) For analyzing interaction of different Fc-variants with human FcγRIIIa-V158 and murine FcγRIV direct coupling of around 6,500 resonance units (RU) of the anti-Penta His antibody (Qiagen) is performed on a CM5 chip at pH 5.0 using the standard amine coupling kit (Biacore, Freiburg/Germany). HuFcγRIIIa-V158-K6H6 and muFcγRIV-aviHis-biotin are captured for 60 s at 4 and 10 nM respectively.
# (§4) Constructs with different Fc-mutations are passed through the flow cells for 120 s at a concentration of 1000 nM with a flow rate of 30 µl/min. The dissociation is monitored for 220 s. Bulk refractive index differences are corrected for by subtracting the response obtained in a reference flow cell. Here, the Fc-variants are flown over a surface with immobilized anti-Penta His antibody but on which HBS-EP has been injected rather than HuFcγRIIIa-V158-K6H6 or muFcγRIV-aviHis-biotin. Affinity for human FcγRIIIa-V158 and murine FcγRIV was determined for wild-type Fc using a concentration range from 500 - 4000 nM.
# (§5) The steady state response was used to derive the dissociation constant KD by non-linear curve fitting of the Langmuir binding isotherm. Kinetic constants were derived using the Biacore T100 Evaluation Software (vAA, Biacore AB, Uppsala/Sweden), to fit rate equations for 1:1 Langmuir binding by numerical integration.
# human FcγRIIIa-V158 [5] = target: T3, human FcγRIIIa-V158 (human, UniProt P08637 17-208); assay: SPR (Biacore T100, 25 °C); receptor captured on anti-Penta His, construct as analyte; kinetic; second value in parentheses, not explained
# T3 construct: His-tagged recombinant receptor captured on anti-Penta His antibody in SPR; also called huFcγRIIIa-V158-K6H6; HuFcγRIIIa-V158-K6H6; not shown: K6H6 tag, named only by this short form
# Description: as §3, §4, §5
# murine FcγRIV [6] = target: T2, murine FcγRIV; assay: SPR (Biacore T100, 25 °C); receptor captured on anti-Penta His, construct as analyte 500 - 4000 nM; steady state
# Description: as §3, §4, §5
# human FcγRIIIa-V158 [7] = target: T3, human FcγRIIIa-V158; assay: as above
# Description: as §3, §4, §5
# human FcγRIIIa-V158 [8] = target: T3, human FcγRIIIa-V158; assay: SPR (Biacore T100, 25 °C); His-tagged receptor captured on anti-Penta His, construct as analyte; kinetic 1:1 fit, one concentration (1000 nM)
# Description: as §3, §4, §5
# [9] = target: T4, human MCSP expressed on tumor cells (human, UniProt Q6UVK1 30-2322); assay: flow cytometry on Colo-38 cells, 50 nM
# T4 construct: whole, on cells; On Colo-38, WM266-4, MV-3 or MDA-MB-435 cells, as named in each row; also called huMCSP; Melanoma-associated Chondroitin Sulfate Proteoglycan
# Description: (§6) Binding of the different bispecific constructs to CD3 on Jurkat cells (ATCC #TIB-152), and the respective tumor antigen on target cells, was determined by FACS. Briefly, cells were harvested, counted and checked for viability. 0.15 - 0.2 million cells per well (in PBS containing 0.1% BSA; 90 µl) were plated in a round-bottom 96-well plate and incubated with the indicated concentration of the bispecific constructs and corresponding IgG controls (10 µl) for 30 min at 4° C. For a better comparison, all constructs and IgG controls were normalized to same molarity. After the incubation, cells were centrifuged (5 min, 350 × g), washed with 150 µl PBS containing 0.1% BSA, resuspended and incubated for further 30 min at 4° C. with 12 µl/well of a FITC-or PE-conjugated secondary antibody. Bound constructs were detected using a FACSCantoII (Software FACS Diva). The “(scFv)₂” molecule was detected using a FITC-conjugated anti-His antibody (Lucerna, #RHIS-45F-Z). For all other molecules, a FITC- or PE-conjugated AffiniPure F(ab′)2 Fragment goat anti-human IgG Fcγ Fragment Specific (Jackson Immuno Research Lab # 109-096-098 / working solution 1:20, or #109-116-170 / working solution 1:80, respectively) was used. Cells were washed by addition of 120 µl/well PBS containing 0.1% BSA and centrifugation at 350 × g for 5 min. A second washing step was performed with 150 µl/well PBS containing 0.1% BSA. Unless otherwise indicated, cells were fixed with 100 µl/well fixation buffer (BD #554655) for 15 min at 4° C. in the dark, centrifuged for 6 min at 400 × g and kept in 200 µl/well PBS containing 0.1% BSA until the samples were measured with FACS CantoII. EC50 values were calculated using the GraphPad Prism software.
# (§7) In a first experiment, different bispecific constructs targeting human MCSP and human CD3 were analyzed by flow cytometry for binding to human CD3 expressed on Jurkat, human T cell leukaemia cells, or to human MCSP on Colo-38 human melanoma cells.
# human FcγRIIIa-V158 [10] = target: T3, human FcγRIIIa-V158; assay: SPR (Biacore T100, 25 °C); receptor captured on anti-Penta His, construct as analyte; kinetic 1:1 fit, one concentration (1000 nM)
# Description: as §3, §4, §5
# [11] = target: T5, human CD3 expressed on Jurkat cells (human, UniProt P07766 23-207); assay: flow cytometry on Jurkat cells, 50 nM
# T5 construct: CD3 complex on Jurkat cells (ATCC TIB-152); also called huCD3
# Description: as §6, §7
# T3 sequence (P08637 17-208 F176V): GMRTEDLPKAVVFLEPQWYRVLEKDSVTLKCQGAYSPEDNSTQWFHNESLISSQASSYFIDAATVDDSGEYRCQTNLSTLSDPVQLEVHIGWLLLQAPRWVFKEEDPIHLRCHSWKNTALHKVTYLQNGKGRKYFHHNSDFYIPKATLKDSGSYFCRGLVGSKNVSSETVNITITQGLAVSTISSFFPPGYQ
# T2 sequence (A0A0B4J1G0 21-203): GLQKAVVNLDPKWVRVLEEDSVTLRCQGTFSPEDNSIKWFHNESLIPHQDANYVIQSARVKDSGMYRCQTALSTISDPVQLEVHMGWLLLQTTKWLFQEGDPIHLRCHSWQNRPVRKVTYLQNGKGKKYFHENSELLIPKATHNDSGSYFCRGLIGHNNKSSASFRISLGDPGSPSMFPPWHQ
# T4 sequence (Q6UVK1 30-2322): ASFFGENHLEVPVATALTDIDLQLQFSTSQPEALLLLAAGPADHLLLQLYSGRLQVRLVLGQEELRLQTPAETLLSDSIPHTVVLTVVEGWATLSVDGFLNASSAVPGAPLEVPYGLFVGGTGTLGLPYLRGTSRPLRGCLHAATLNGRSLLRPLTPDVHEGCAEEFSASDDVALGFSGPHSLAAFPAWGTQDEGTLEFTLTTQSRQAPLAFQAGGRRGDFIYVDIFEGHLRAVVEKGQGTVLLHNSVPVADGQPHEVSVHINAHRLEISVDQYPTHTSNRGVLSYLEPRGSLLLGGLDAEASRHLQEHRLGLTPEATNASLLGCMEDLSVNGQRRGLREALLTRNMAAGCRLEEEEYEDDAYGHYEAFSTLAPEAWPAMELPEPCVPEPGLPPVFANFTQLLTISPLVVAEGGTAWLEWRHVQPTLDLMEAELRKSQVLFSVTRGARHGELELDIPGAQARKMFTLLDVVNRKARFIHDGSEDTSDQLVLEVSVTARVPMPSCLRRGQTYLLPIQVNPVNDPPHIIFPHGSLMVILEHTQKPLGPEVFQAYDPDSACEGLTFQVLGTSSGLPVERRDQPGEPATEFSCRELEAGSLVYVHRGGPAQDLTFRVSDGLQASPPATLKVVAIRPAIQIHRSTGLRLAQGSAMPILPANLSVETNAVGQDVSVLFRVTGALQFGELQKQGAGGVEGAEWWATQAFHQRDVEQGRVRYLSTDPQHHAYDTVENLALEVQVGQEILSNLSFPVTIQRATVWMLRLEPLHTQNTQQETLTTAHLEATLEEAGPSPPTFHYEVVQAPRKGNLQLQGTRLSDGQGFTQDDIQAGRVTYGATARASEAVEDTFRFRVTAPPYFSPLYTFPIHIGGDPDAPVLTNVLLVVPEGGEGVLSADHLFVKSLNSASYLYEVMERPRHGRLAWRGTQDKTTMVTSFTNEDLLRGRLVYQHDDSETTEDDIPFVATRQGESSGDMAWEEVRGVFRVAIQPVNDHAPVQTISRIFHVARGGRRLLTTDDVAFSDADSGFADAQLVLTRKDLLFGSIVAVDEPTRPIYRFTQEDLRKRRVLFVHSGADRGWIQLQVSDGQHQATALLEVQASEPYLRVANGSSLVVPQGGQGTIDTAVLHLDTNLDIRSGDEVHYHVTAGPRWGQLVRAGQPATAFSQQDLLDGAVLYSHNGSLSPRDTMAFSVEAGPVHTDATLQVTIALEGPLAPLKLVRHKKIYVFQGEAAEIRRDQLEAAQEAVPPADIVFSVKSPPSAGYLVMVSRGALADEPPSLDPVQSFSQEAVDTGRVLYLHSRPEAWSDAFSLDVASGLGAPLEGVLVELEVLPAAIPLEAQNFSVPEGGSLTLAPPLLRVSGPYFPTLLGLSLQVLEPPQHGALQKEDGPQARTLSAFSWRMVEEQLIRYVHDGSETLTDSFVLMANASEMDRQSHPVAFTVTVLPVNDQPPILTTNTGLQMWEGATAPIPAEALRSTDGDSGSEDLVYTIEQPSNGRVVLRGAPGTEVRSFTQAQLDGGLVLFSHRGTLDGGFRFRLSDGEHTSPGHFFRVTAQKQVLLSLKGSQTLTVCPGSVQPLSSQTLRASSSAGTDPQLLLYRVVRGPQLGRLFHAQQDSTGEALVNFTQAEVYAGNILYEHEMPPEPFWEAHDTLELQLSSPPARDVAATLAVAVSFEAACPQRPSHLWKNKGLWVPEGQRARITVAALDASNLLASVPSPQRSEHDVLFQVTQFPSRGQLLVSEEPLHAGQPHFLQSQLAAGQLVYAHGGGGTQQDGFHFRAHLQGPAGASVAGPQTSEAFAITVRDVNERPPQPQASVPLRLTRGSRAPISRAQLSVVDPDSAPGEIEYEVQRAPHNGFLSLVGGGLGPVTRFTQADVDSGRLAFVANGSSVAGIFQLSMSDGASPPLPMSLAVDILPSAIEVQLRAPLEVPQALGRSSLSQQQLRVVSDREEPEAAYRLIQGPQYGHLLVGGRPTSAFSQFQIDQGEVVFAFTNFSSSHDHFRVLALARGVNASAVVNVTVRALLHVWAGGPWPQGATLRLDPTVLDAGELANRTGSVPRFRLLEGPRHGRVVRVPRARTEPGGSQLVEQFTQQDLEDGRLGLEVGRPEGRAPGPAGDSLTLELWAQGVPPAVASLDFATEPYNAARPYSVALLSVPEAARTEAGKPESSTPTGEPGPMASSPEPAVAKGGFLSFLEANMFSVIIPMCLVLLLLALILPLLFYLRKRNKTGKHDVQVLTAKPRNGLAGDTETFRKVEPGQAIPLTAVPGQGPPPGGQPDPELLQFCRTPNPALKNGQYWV
# T5 sequence (P07766 23-207 limits assumed): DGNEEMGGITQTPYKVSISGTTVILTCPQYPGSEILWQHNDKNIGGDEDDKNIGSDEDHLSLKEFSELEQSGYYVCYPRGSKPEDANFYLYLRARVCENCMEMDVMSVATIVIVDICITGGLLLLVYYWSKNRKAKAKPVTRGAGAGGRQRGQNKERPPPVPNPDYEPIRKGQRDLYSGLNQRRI
binder,measurement,setting,value
B1,binding result,[1],binds
B2,binding result,[2],binds
B3,binding result,[3],binds
B4,Kd,murine FcγRIV [4],576 nM
same,Kd,human FcγRIIIa-V158 [5],1200 nM
same,Kd,murine FcγRIV [6],1500 nM
same,Kd,human FcγRIIIa-V158 [7],3.47 µM
same,Kd,human FcγRIIIa-V158 [8],600 nM
B5,binding result,[9],binds
same,Kd,human FcγRIIIa-V158 [10],2130 nM
same,binding result,[11],binds
